Results reported in publication PMC3173194.

Molecular target: GalNAc-glycosylated recombinant MUC2 fragment (UniProt Q02817)
Assay: peptide or protein array

GalNAc-T2 with a mutation in the α-lectin subdomain (GalNAc-T2^458H) (from UniProt Q10471 52-571) (enzyme)
percent of the total binding (of GalNAc-T2 to GalNAc-MUC2, with Mn2+ and UDP): 20%
